Assay results taken from the supplement of paper PMC9112550, “Optimization of the antimicrobial peptide Bac7 by deep mutational scanning” (BMC Biology, 2022).

Tested on: Escherichia coli TOP10
Assay: shrunken log2 fold change of peptide-encoding DNA abundance (4.5 h post-induction vs induction); higher = less antimicrobial activity (less host growth inhibition)
Settings: time post-induction: 4.5 h; library: site-saturation at positions 5, 18, 19, 20
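Also: peptides expressed intracellularly from a pBAD plasmid library in pooled LB shake-flask culture, induced with 0.3% L-arabinose, DNA abundance read by NGS, three biological replicates, DESeq2 with apeglm shrinkage.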

Sequence	shrunken log2 fold change
RRIRERPPRLPRPRPRPNRHPRP	-0.516
RRIRERPPRLPRPRPRPNTAPRP	0.0197
RRIRERPPRLPRPRPRPNTEPRP	0.0956
RRIRERPPRLPRPRPRPNYQPRP	-0.812
RRIRERPPRLPRPRPRPNYTPRP	-0.773
RRIRERPPRLPRPRPRPPAFPRP	0.331
RRIRERPPRLPRPRPRPPAKPRP	0.176
RRIRERPPRLPRPRPRPPALPRP	0.114
RRIRERPPRLPRPRPRPPCEPRP	-0.075
RRIRERPPRLPRPRPRPPCGPRP	0.259
RRIRERPPRLPRPRPRPPDHPRP	-0.0455
RRIRERPPRLPRPRPRPPDMPRP	-0.332
RRIRERPPRLPRPRPRPPDVPRP	-0.108
RRIRERPPRLPRPRPRPPEMPRP	0.0477
RRIRERPPRLPRPRPRPPHTPRP	-0.152
RRIRERPPRLPRPRPRPPKHPRP	-0.0654
RRIRERPPRLPRPRPRPPLEPRP	0.161
RRIRERPPRLPRPRPRPPMQPRP	0.225
RRIRERPPRLPRPRPRPPNQPRP	-0.118
RRIRERPPRLPRPRPRPPPDPRP	0.505
RRIRERPPRLPRPRPRPPPSPRP	0.415
RRIRERPPRLPRPRPRPPPTPRP	0.518
RRIRERPPRLPRPRPRPPQVPRP	0.207
RRIRERPPRLPRPRPRPPRFPRP	0.26
RRIRERPPRLPRPRPRPPRPPRP	0.64

Sequence	shrunken log2 fold change
RRIRERPPRLPRPRPRPPTCPRP	-0.0707
RRIRERPPRLPRPRPRPPTKPRP	0.774
RRIRERPPRLPRPRPRPPTLPRP	0.162
RRIRERPPRLPRPRPRPPVMPRP	0.0499
RRIRERPPRLPRPRPRPQACPRP	-0.0746
RRIRERPPRLPRPRPRPQAWPRP	0.0278
RRIRERPPRLPRPRPRPQCSPRP	-0.442
RRIRERPPRLPRPRPRPQDDPRP	0.121
RRIRERPPRLPRPRPRPQDNPRP	-0.0327
RRIRERPPRLPRPRPRPQEGPRP	0.0271
RRIRERPPRLPRPRPRPQEQPRP	-0.0202
RRIRERPPRLPRPRPRPQERPRP	0.061
RRIRERPPRLPRPRPRPQFRPRP	-0.00151
RRIRERPPRLPRPRPRPQGRPRP	-0.0137
RRIRERPPRLPRPRPRPQKEPRP	-0.0239
RRIRERPPRLPRPRPRPQKTPRP	-0.0465
RRIRERPPRLPRPRPRPQLMPRP	-0.0865
RRIRERPPRLPRPRPRPQMCPRP	0.0746
RRIRERPPRLPRPRPRPQMNPRP	-0.276
RRIRERPPRLPRPRPRPQMWPRP	-0.0958
RRIRERPPRLPRPRPRPQNFPRP	-0.486
RRIRERPPRLPRPRPRPQNMPRP	-1.05
RRIRERPPRLPRPRPRPQPAPRP	0.171
RRIRERPPRLPRPRPRPQPIPRP	0.0322
RRIRERPPRLPRPRPRPQPPPRP	0.104

Sequence	shrunken log2 fold change
RRIRERPPRLPRPRPRPQQLPRP	-0.178
RRIRERPPRLPRPRPRPQQWPRP	0.19
RRIRERPPRLPRPRPRPQSQPRP	0.0662
RRIRERPPRLPRPRPRPQTCPRP	-0.0436
RRIRERPPRLPRPRPRPQTLPRP	-0.324
RRIRERPPRLPRPRPRPQVWPRP	-0.0702
RRIRERPPRLPRPRPRPQYKPRP	-0.675
RRIRERPPRLPRPRPRPQYQPRP	-1.12
RRIRERPPRLPRPRPRPQYTPRP	-1.16
RRIRERPPRLPRPRPRPRCQPRP	-0.0986
RRIRERPPRLPRPRPRPRCRPRP	0.113
RRIRERPPRLPRPRPRPRERPRP	0.389
RRIRERPPRLPRPRPRPRFGPRP	0.152
RRIRERPPRLPRPRPRPRFNPRP	-0.453
RRIRERPPRLPRPRPRPRGGPRP	0.376
RRIRERPPRLPRPRPRPRIKPRP	-0.598
RRIRERPPRLPRPRPRPRKVPRP	0.107
RRIRERPPRLPRPRPRPRMAPRP	0.2
RRIRERPPRLPRPRPRPRMNPRP	0.0757
RRIRERPPRLPRPRPRPRMSPRP	-0.254
RRIRERPPRLPRPRPRPRNNPRP	-0.441
RRIRERPPRLPRPRPRPRPAPRP	0.434
RRIRERPPRLPRPRPRPRPGPRP	0.464
RRIRERPPRLPRPRPRPRPRPRP	0.723
RRIRERPPRLPRPRPRPRQFPRP	-0.174

Sequence	shrunken log2 fold change
RRIRERPPRLPRPRPRPRRFPRP	0.158
RRIRERPPRLPRPRPRPRSHPRP	-0.349
RRIRERPPRLPRPRPRPRTCPRP	-0.0174
RRIRERPPRLPRPRPRPRTHPRP	-0.574
RRIRERPPRLPRPRPRPRWNPRP	-0.0995
RRIRERPPRLPRPRPRPRWQPRP	0.245
RRIRERPPRLPRPRPRPRYCPRP	-0.516
RRIRERPPRLPRPRPRPRYIPRP	-0.208
RRIRERPPRLPRPRPRPRYYPRP	-0.206
RRIRERPPRLPRPRPRPSAEPRP	0.0172
RRIRERPPRLPRPRPRPSALPRP	-0.373
RRIRERPPRLPRPRPRPSASPRP	-0.13
RRIRERPPRLPRPRPRPSCKPRP	-0.277
RRIRERPPRLPRPRPRPSDQPRP	-1.5
RRIRERPPRLPRPRPRPSDTPRP	-0.287
RRIRERPPRLPRPRPRPSFLPRP	-0.789
RRIRERPPRLPRPRPRPSGAPRP	-0.12
RRIRERPPRLPRPRPRPSGEPRP	-0.157
RRIRERPPRLPRPRPRPSHEPRP	-0.0595
RRIRERPPRLPRPRPRPSKVPRP	-0.365
RRIRERPPRLPRPRPRPSLDPRP	-0.35
RRIRERPPRLPRPRPRPSMNPRP	-0.573
RRIRERPPRLPRPRPRPSNCPRP	-0.0637
RRIRERPPRLPRPRPRPSNWPRP	-0.296
RRIRERPPRLPRPRPRPSPAPRP	-0.0943

Sequence	shrunken log2 fold change
RRIRERPPRLPRPRPRPSPDPRP	-0.185
RRIRERPPRLPRPRPRPSPTPRP	0.0865
RRIRERPPRLPRPRPRPSQCPRP	-0.0684
RRIRERPPRLPRPRPRPSRWPRP	1.41
RRIRERPPRLPRPRPRPSTSPRP	-0.145
RRIRERPPRLPRPRPRPSTTPRP	-0.285
RRIRERPPRLPRPRPRPSVLPRP	-0.312
RRIRERPPRLPRPRPRPSVMPRP	-0.175
RRIRERPPRLPRPRPRPSVPPRP	-0.235
RRIRERPPRLPRPRPRPSWGPRP	-0.102
RRIRERPPRLPRPRPRPSWKPRP	-0.345
RRIRERPPRLPRPRPRPSWMPRP	-0.416
RRIRERPPRLPRPRPRPSYAPRP	-0.176
RRIRERPPRLPRPRPRPTAKPRP	0.0302
RRIRERPPRLPRPRPRPTALPRP	-0.415
RRIRERPPRLPRPRPRPTANPRP	-0.154
RRIRERPPRLPRPRPRPTEMPRP	0.0983
RRIRERPPRLPRPRPRPTFKPRP	-0.313
RRIRERPPRLPRPRPRPTFQPRP	-0.103
RRIRERPPRLPRPRPRPTFYPRP	-0.18
RRIRERPPRLPRPRPRPTGMPRP	-0.128
RRIRERPPRLPRPRPRPTHTPRP	-0.409
RRIRERPPRLPRPRPRPTKFPRP	-0.364
RRIRERPPRLPRPRPRPTLEPRP	0.034
RRIRERPPRLPRPRPRPTMCPRP	0.292

Sequence	shrunken log2 fold change
RRIRERPPRLPRPRPRPTMEPRP	-0.116
RRIRERPPRLPRPRPRPTMFPRP	-0.724
RRIRERPPRLPRPRPRPTMKPRP	-0.0369
RRIRERPPRLPRPRPRPTMMPRP	-0.0968
RRIRERPPRLPRPRPRPTPCPRP	0.0922
RRIRERPPRLPRPRPRPTPIPRP	0.244
RRIRERPPRLPRPRPRPTQPPRP	0.254
RRIRERPPRLPRPRPRPTRPPRP	0.461
RRIRERPPRLPRPRPRPTRTPRP	0.374
RRIRERPPRLPRPRPRPTRVPRP	-0.0943
RRIRERPPRLPRPRPRPTRYPRP	-0.154
RRIRERPPRLPRPRPRPTSIPRP	-0.19
RRIRERPPRLPRPRPRPTSSPRP	-0.303
RRIRERPPRLPRPRPRPTTAPRP	0.0732
RRIRERPPRLPRPRPRPTTHPRP	-0.294
RRIRERPPRLPRPRPRPTTNPRP	-0.185
RRIRERPPRLPRPRPRPTVDPRP	-0.0352
RRIRERPPRLPRPRPRPTVYPRP	-0.194
RRIRERPPRLPRPRPRPTWYPRP	-0.217
RRIRERPPRLPRPRPRPTYKPRP	-0.579
RRIRERPPRLPRPRPRPVAFPRP	-0.0756
RRIRERPPRLPRPRPRPVCFPRP	-0.173
RRIRERPPRLPRPRPRPVCLPRP	-0.0994
RRIRERPPRLPRPRPRPVDVPRP	0.064
RRIRERPPRLPRPRPRPVEMPRP	0.139
